Results: paper PMC9700037, “Inflammasome sensor NLRP1 disease variant M1184V promotes autoproteolysis and DPP9 complex formation by stabilizing the FIIND domain” (The Journal of Biological Chemistry, 2022)

T1: C-terminal cleavage fragment (UPA) of NLRP1-FIIND (human, UniProt Q9C000 1213-1376)
T1 construct: NLRP1, human, isoform 1; from the autolytic cleavage site (S1213) to the end of the FIIND construct (1376); source: Sf9 insect cells, purified; arises by autoproteolysis of the FIIND construct
T1 sequence (looked up): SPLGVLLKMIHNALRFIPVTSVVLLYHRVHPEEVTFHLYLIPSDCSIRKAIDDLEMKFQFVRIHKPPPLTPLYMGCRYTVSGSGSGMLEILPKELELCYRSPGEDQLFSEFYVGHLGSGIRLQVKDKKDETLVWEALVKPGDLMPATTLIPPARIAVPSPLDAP


Legend:
[1] = target: T1, C-terminal cleavage fragment (UPA) of …; test: SEC; purified FIIND proteins after removal of GST by TEV, Superose 6 increase (10/300) GL, 0.5 ml/min; fractions checked by SDS-PAGE; details: both partners purified
[2] = target: the molecule itself; test: as above
[3] = target: T2, Intracellularly biotinylated Avi-His6-tev-DPP9 (UniProt Q86TI2 1-863, biotin (on the Avi tag)); test: SPR; biotinylated Avi-His6-tev-DPP9 immobilised on a Series S SA chip (Biacore 8K); monomeric fraction of FIIND proteins (or GST) injected, single-cycle kinetics, 78.125-5000 nM (S1213A from 39.06 nM), 10 mM Hepes pH 7.5, 150 mM NaCl, 0.5 mM TCEP, 0.05% Tween-20; details: both partners purified
T2 construct: dipeptidyl peptidase 9 (DPP9); also called biotin-DPP9; immobilized DPP9; source: Sf9 insect cells, intracellularly biotinylated, purified; not shown: Avi, N-terminal, kept; His6, N-terminal, kept
T2 sequence (Q86TI2 whole entry): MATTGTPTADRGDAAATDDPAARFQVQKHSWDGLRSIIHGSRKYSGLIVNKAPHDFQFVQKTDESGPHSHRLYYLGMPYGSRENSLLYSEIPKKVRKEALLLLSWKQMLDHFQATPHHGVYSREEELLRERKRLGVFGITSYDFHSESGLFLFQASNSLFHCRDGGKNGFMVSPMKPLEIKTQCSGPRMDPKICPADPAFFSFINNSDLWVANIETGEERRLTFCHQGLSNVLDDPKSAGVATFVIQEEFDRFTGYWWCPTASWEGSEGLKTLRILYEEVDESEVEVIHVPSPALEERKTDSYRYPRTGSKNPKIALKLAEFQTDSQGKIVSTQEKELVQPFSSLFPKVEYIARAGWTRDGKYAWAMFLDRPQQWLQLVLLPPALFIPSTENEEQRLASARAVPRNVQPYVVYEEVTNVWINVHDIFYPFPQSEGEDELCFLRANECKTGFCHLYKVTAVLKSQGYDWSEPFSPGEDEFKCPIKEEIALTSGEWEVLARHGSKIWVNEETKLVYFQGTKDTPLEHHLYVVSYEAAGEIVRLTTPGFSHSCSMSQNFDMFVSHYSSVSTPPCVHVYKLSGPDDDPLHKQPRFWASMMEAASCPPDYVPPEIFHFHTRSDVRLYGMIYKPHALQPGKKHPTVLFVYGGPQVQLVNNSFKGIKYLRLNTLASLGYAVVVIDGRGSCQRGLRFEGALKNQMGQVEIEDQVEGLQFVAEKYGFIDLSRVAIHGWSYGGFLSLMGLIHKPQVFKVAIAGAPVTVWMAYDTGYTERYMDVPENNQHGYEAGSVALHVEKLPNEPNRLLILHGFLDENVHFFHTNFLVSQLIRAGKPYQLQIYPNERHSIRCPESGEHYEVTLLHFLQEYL

[4] = target: T2, Intracellularly biotinylated …; test: SPR; as a3, with 100 μM Val-boroPro (VbP) present in all dilutions of the FIIND domain; details: both partners purified

Binder | Kd [3] | also measured
N-terminal cleavage fragment (ZU5) of NLRP1-FIIND wt (domain or fragment, human, UniProt Q9C000 1064-1212, looked up, NLRP1, human, isoform 1; from the start of the FIIND construct (1064) to the autolytic cleavage site (peptide bond F1212-S1213); source: Sf9 insect cells, purified; arises by autoproteolysis of the FIIND construct; not shown: GST, N-terminal, cleaved) SQGDLHTKPLGTDDDFWGPTGPVATEVVDKEKNLYRVHFPVAGSYRWPNTGLCFVMREAVTVEIEFCVWDQFLGEINPQHSWMVAGPLLDIKAEPGAVEAVHLPHFVALQGGHVDTSLFQMAHFKEEGMLLEKPARVELHHIVLENPSF |  | binding result [1]: binds
N-terminal cleavage fragment (ZU5) of NLRP1-FIIND M1184V (domain or fragment, human, UniProt Q9C000 1064-1212, looked up, NLRP1, human, isoform 1, natural variant M1184V; from the start of the FIIND construct (1064) to the autolytic cleavage site (peptide bond F1212-S1213); source: Sf9 insect cells, purified; arises by autoproteolysis of the FIIND construct; not shown: GST, N-terminal, cleaved) SQGDLHTKPLGTDDDFWGPTGPVATEVVDKEKNLYRVHFPVAGSYRWPNTGLCFVMREAVTVEIEFCVWDQFLGEINPQHSWMVAGPLLDIKAEPGAVEAVHLPHFVALQGGHVDTSLFQVAHFKEEGMLLEKPARVELHHIVLENPSF |  | binding result [1]: binds
NLRP1-FIIND (wt) (domain or fragment, human, UniProt Q9C000 1064-1376, looked up, NLRP1 FIIND domain (ZU5-UPA), human, residues 1064-1376 of isoform 1; GST is still on the protein during the GST pull-down of the co-expression experiments and is cut off by TEV before SEC, SEC-MALS and SPR; also called wt FIIND protein; NLRP1 FIIND domain; source: also co-expressed with His6-DPP9 and SUMO-UPA in Sf9; not shown: GST, N-terminal, cleaved) SQGDLHTKPLGTDDDFWGPTGPVATEVVDKEKNLYRVHFPVAGSYRWPNTGLCFVMREAVTVEIEFCVWDQFLGEINPQHSWMVAGPLLDIKAEPGAVEAVHLPHFVALQGGHVDTSLFQMAHFKEEGMLLEKPARVELHHIVLENPSFSPLGVLLKMIHNALRFIPVTSVVLLYHRVHPEEVTFHLYLIPSDCSIRKAIDDLEMKFQFVRIHKPPPLTPLYMGCRYTVSGSGSGMLEILPKELELCYRSPGEDQLFSEFYVGHLGSGIRLQVKDKKDETLVWEALVKPGDLMPATTLIPPARIAVPSPLDAP | 1.9 µM | binding result [2]: binds
NLRP1-FIIND (M1184V) (domain or fragment, human, UniProt Q9C000 1064-1376, looked up, NLRP1 FIIND domain (ZU5-UPA), human, residues 1064-1376 of isoform 1, natural variant M1184V; Mostly autocleaved between F1212 and S1213, the fragments stay together; GST is still on the protein during the GST pull-down of the co-expression experiments and is cut off by TEV before SEC, SEC-MALS and SPR; also called M1184V variant FIIND; source: also co-expressed with His6-DPP9 with or without …) SQGDLHTKPLGTDDDFWGPTGPVATEVVDKEKNLYRVHFPVAGSYRWPNTGLCFVMREAVTVEIEFCVWDQFLGEINPQHSWMVAGPLLDIKAEPGAVEAVHLPHFVALQGGHVDTSLFQVAHFKEEGMLLEKPARVELHHIVLENPSFSPLGVLLKMIHNALRFIPVTSVVLLYHRVHPEEVTFHLYLIPSDCSIRKAIDDLEMKFQFVRIHKPPPLTPLYMGCRYTVSGSGSGMLEILPKELELCYRSPGEDQLFSEFYVGHLGSGIRLQVKDKKDETLVWEALVKPGDLMPATTLIPPARIAVPSPLDAP | 3.5 µM | Kd [4]: 3.65 µM
NLRP1-FIIND (M1184V S1213A) (domain or fragment, human, UniProt Q9C000 1064-1376, looked up, NLRP1 FIIND domain, human, residues 1064-1376 of isoform 1, M1184V and S1213A; Uncleaved single chain; GST kept during the GST pull-down of the co-expression, cut off by TEV afterwards; also called cleavage-deficient FIIND mutant (M1184V–S1213A); source: also co-expressed with His6-DPP9 in Sf9; not shown: GST, N-terminal, cleaved) SQGDLHTKPLGTDDDFWGPTGPVATEVVDKEKNLYRVHFPVAGSYRWPNTGLCFVMREAVTVEIEFCVWDQFLGEINPQHSWMVAGPLLDIKAEPGAVEAVHLPHFVALQGGHVDTSLFQVAHFKEEGMLLEKPARVELHHIVLENPSFAPLGVLLKMIHNALRFIPVTSVVLLYHRVHPEEVTFHLYLIPSDCSIRKAIDDLEMKFQFVRIHKPPPLTPLYMGCRYTVSGSGSGMLEILPKELELCYRSPGEDQLFSEFYVGHLGSGIRLQVKDKKDETLVWEALVKPGDLMPATTLIPPARIAVPSPLDAP | 2.9 µM | 
NLRP1-FIIND (P1214R) (domain or fragment, human, UniProt Q9C000 1064-1376, looked up, NLRP1 FIIND domain, human, residues 1064-1376 of isoform 1, patient mutation P1214R; not shown: GST, N-terminal, cleaved) SQGDLHTKPLGTDDDFWGPTGPVATEVVDKEKNLYRVHFPVAGSYRWPNTGLCFVMREAVTVEIEFCVWDQFLGEINPQHSWMVAGPLLDIKAEPGAVEAVHLPHFVALQGGHVDTSLFQMAHFKEEGMLLEKPARVELHHIVLENPSFSRLGVLLKMIHNALRFIPVTSVVLLYHRVHPEEVTFHLYLIPSDCSIRKAIDDLEMKFQFVRIHKPPPLTPLYMGCRYTVSGSGSGMLEILPKELELCYRSPGEDQLFSEFYVGHLGSGIRLQVKDKKDETLVWEALVKPGDLMPATTLIPPARIAVPSPLDAP | 3.43 µM | 
NLRP1-FIIND (M1184V–P1214R) (domain or fragment, human, UniProt Q9C000 1064-1376, looked up, NLRP1 FIIND domain, human, residues 1064-1376 of isoform 1, M1184V and P1214R; they were combined here by mutagenesis; also called M1184V–P1214R double mutation; not shown: GST, N-terminal, cleaved) SQGDLHTKPLGTDDDFWGPTGPVATEVVDKEKNLYRVHFPVAGSYRWPNTGLCFVMREAVTVEIEFCVWDQFLGEINPQHSWMVAGPLLDIKAEPGAVEAVHLPHFVALQGGHVDTSLFQVAHFKEEGMLLEKPARVELHHIVLENPSFSRLGVLLKMIHNALRFIPVTSVVLLYHRVHPEEVTFHLYLIPSDCSIRKAIDDLEMKFQFVRIHKPPPLTPLYMGCRYTVSGSGSGMLEILPKELELCYRSPGEDQLFSEFYVGHLGSGIRLQVKDKKDETLVWEALVKPGDLMPATTLIPPARIAVPSPLDAP | 4.5 µM | 
NLRP1-FIIND (S1213A) (domain or fragment, human, UniProt Q9C000 1064-1376, looked up, NLRP1 FIIND domain, human, residues 1064-1376 of isoform 1, S1213A (no autoproteolysis); Uncleaved single chain; also called autoproteolysis-deficient NLRP1-FIIND; not shown: GST, N-terminal, cleaved) SQGDLHTKPLGTDDDFWGPTGPVATEVVDKEKNLYRVHFPVAGSYRWPNTGLCFVMREAVTVEIEFCVWDQFLGEINPQHSWMVAGPLLDIKAEPGAVEAVHLPHFVALQGGHVDTSLFQMAHFKEEGMLLEKPARVELHHIVLENPSFAPLGVLLKMIHNALRFIPVTSVVLLYHRVHPEEVTFHLYLIPSDCSIRKAIDDLEMKFQFVRIHKPPPLTPLYMGCRYTVSGSGSGMLEILPKELELCYRSPGEDQLFSEFYVGHLGSGIRLQVKDKKDETLVWEALVKPGDLMPATTLIPPARIAVPSPLDAP | 1.55 µM | binding result [2]: binds
